The values below are quoted from earlier work in PMC2669593.

This data set addresses CaVβ1b (UniProt Q02641).
UniProt Q02641, sequence (Q02641 whole entry): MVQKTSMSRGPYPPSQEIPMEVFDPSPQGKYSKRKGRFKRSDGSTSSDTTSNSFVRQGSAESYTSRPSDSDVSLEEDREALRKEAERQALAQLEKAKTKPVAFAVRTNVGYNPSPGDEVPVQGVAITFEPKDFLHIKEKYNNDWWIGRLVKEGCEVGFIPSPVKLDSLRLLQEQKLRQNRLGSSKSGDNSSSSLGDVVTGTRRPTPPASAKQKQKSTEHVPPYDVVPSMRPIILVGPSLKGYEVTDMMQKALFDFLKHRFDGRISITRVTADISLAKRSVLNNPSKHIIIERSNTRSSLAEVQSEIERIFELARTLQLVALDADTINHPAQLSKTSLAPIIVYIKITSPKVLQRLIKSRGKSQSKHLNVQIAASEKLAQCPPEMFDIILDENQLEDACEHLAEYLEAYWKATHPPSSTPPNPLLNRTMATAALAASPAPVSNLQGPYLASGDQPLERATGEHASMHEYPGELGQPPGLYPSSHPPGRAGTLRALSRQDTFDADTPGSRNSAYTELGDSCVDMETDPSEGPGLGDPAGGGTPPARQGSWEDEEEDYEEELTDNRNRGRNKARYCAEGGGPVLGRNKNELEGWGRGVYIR

A word on the Kd: it is the free concentration of one partner at which half of the binding sites on the other are occupied at equilibrium, for simple one-to-one binding. As for “CaV2.2 I-II linker (from UniProt Q00975)”, the Kd is 10 nM.
